The values below come from article PMC4894940, “The function of the two-pore channel TPC1 depends on dimerization of its carboxy-terminal helix” (Cellular and Molecular Life Sciences: CMLS, 2016).

In experiment [1] the test system is slow vacuolar (SV) currents in tpc1-2 vacuoles. The experiment is described as follows: Whole-vacuolar patch-clamp of TPC1 variants (SV currents). It counts as cell-based, Arabidopsis thaliana. To be noted: whole-vacuolar, 1 mM CaCl2, relative to wild type; results section. As for the experimental part:
(§1) Expression of GFP-fusion proteins for electrophysiological measurements or confocal microscopy was performed in A. thaliana tpc1-2 mesophyll protoplasts as described. Briefly, leaves were enzymatically digested to release mesophyll protoplasts, which were then transformed by the polyethylene glycol method. Protoplasts were used for electrophysiological measurements and subcellular localization of GFP fluorescence 2–4 days after transformation.
(§2) Patch-clamp experiments were performed on transformed vacuoles harboring two-pore channels as identified by GFP fluorescence. The pipette (luminal) solution consisted of 100 mM K-gluconate, 2 mM MgCl2, 10 mM EGTA, 10 mM MES, pH 5.5/Tris. The bath (cytosolic) solution contained 50 mM K-gluconate, 1 mM CaCl2, 1 mM MgCl2, 2 mM DTT, 10 mM HEPES, pH 7.5/Tris. Solutions were adjusted to 430 mosmol/kg by adding D-sorbitol. For analysis of the TPC1-S706 mutants two further calcium concentrations of the bath solution were used in which 1 mM CaCl2 was substituted by 0.2 mM or 0.05 mM CaCl2, respectively. Competition assays using the CTH peptide were performed on endogenous TPC1 channels in vacuoles isolated from Col-0 plants. Peptides were dissolved at 10 mM in bath solution supplemented with 1 % DMSO and 0.1 % pluronic, and diluted >600-fold for application in patch-clamp recordings. Currents were recorded either in the whole-vacuolar or cytosolic side-out configuration of the patch-clamp technique, using an EPC10 amplifier and the program PULSE (HEKA electronics, Lambrecht, Germany). Recordings and data analysis were performed as described earlier. Relative open probabilities (P o) were determined from tail currents at −53 mV, following pulses to the different test voltages. Tail currents were normalized to the maximum values at 1 mM Ca^2+, plotted as a function of the applied test voltage, and fitted according to the Boltzmann equation: PO=A/1+exp^zF/RT·(Vo-V) where V o and z are parameters for the voltage at half-maximum open probability and the apparent number of gating charges, respectively, and A describes the maximum conductance that is reached under the experimental conditions.

For experiment [2], the system named is excised cytosolic side-out vacuolar membrane patches of tpc1-2 cells. Nature of the experiment: Excised cytosolic side-out patch recordings of TPC1 variants. It counts as cell-based, Arabidopsis thaliana. As for the experimental part:
as §1, §2

Experiment [3] relates to TPC1 subunits co-expressed in Nicotiana benthamiana leaves. Nature of the experiment: Bimolecular fluorescence complementation (Split Venus BiFC). It counts as cell-based. To be noted: N. benthamiana leaves, plate reader and confocal. As for the experimental part: For BiFC analyses the gateway entry vector pENTR-D-TOPO and the destination vectors pDEST–^GWVYCE and pDEST–^GWVYNE were used for C-terminal fusion of the Venus C- and N-terminus, respectively, and pDEST–VYCE(R)^GW and pDEST–VYNE(R)^GW for N-terminal tagging.
BiFC studies were performed as described using a Split Venus system. The Agrobacterium strain C58C1 [42] harboring the plasmid of interest and the helper strain p19 [43] were grown in LB medium supplemented with 100 µg/ml Kanamycin at 29 °C overnight. The cultures were brought to an optical density (OD600) of 1.0 in infiltration buffer (10 mM MES, 10 mM MgCl2, 100 µM acetosyringone, pH 5.7/KOH) and the combinations to test for co-expression mixed at equal amounts. The p19 helper strain (OD600 = 1.0) was added to these mixtures in a 1:1 ratio. Suspensions were incubated for 2 h before infiltration into the abaxial side of 6-week-old N. benthamiana leaves. Each leaf was infiltrated with several plasmid combinations and a positive control (TPC1/pDEST-^GWVYCE and TPC1/pDEST-^GWVYNE) as well as a negative control (p19 alone) at separated areas to monitor comparability of the transient expression and to define background fluorescence.
For fluorescence quantification leaf disks (Ø 6 mm) were cut out of the infiltrated areas with a cork borer 2.5 day after infiltration. Leaf disks were placed upside-down in a black 96-well plate prefilled with 70 µl H2O per well to minimize dehydration effects. Fluorescence was measured with a plate-reader (Infinite F200, Tecan) with an excitation wavelength of 485 ± 20 nm and an emission wavelength of 525 ± 25 nm.

The next experiment has as its system tonoplast. Nature of the experiment: Confocal localization of GFP-fusions in tpc1-2 mesophyll protoplasts. It counts as cell-based, Arabidopsis thaliana. To be noted: GFP-fusion in tpc1-2 mesophyll protoplasts. As for the experimental part: as §1
Fluorescence signals were detected and documented with a TCS SP2 confocal laser scanning microscope and the Leica Confocal Software (Leica Microsystems). A 488 nm Argon laser was used for excitation of GFP and of the auto-fluorescence of chlorophyll. GFP-signals were detected from 500 to 556 nm and chlorophyll signals from 675 to 767 nm. Venus was excited with a […] and detected in the range from 520 to 556 nm, the corresponding chlorophyll signals were detected from 637 to 736 nm. Images were processed with Photoshop (Adobe Systems).

B1: TPC1-3LP: substitution of three leucines (L714, 715, and 719) by prolines (protein, UniProt Q94KI8 1-733, looked up, variant L714P L715P L719P)
Two pore calcium channel …: MEDPLIGRDSLGGGGTDRVRRSEAITHGTPFQKAAALVDLAEDGIGLPVEILDQSSFGESARYYFIFTRLDLIWSLNYFALLFLNFFEQPLWCEKNPKPSCKDRDYYYLGELPYLTNAESIIYEVITLAILLVHTFFPISYEGSRIFWTSRLNLVKVACVVILFVDVLVDFLYLSPLAFDFLPFRIAPYVRVIIFILSIRELRDTLVLLSGMLGTYLNILALWMLFLLFASWIAFVMFEDTQQGLTVFTSYGATLYQMFILFTTSNNPDVWIPAYKSSRWSSVFFVLYVLIGVYFVTNLILAVVYDSFKEQLAKQVSGMDQMKRRMLEKAFGLIDSDKNGEIDKNQCIKLFEQLTNYRTLPKISKEEFGLIFDELDDTRDFKINKDEFADLCQAIALRFQKEEVPSLFEHFPQIYHSALSQQLRAFVRSPNFGYAISFILIINFIAVVVETTLDIEESSAQKPWQVAEFVFGWIYVLEMALKIYTYGFENYWREGANRFDFLVTWVIVIGETATFITPDENTFFSNGEWIRYLLLARMLRLIRLLMNVQRYRAFIATFITLIPSLMPYLGTIFCVLCIYCSIGVQVFGGLVNAGNKKLFETELAEDDYLLFNFNDYPNGMVTLFNLLVMGNWQVWMESYKDLTGTWWSITYFVSFYVITILLLLNLVVAFVLEAFFTELDLEEEEKCQGQDSQEKRNRRRSAGSKSRSQRVDTPPHHMPGDELSKPECSTSDT
modifications: C-terminal GFP
notes: substitution of three leucines (L714, 715, and 719) by prolines
Take B1: the “residual whole-vacuolar current amplitude (% of wild type amplitude)” value in experiment [1] is listed as “about 7%”. Moreover, the “macroscopic currents in excised patches” value in experiment [2] (excised patches, tpc1-2 cells) is “no macroscopic currents were resolved”. Moreover, the “BiFC signal” value in experiment [3] is reported as “reduced compared to the wild type”.

B2: TPC1: wild type Arabidopsis two-pore channel TPC1 expressed as GFP-fusion in tpc1-2 background (protein)
chain: MEDPLIGRDSLGGGGTDRVRRSEAITHGTPFQKAAALVDLAEDGIGLPVEILDQSSFGESARYYFIFTRLDLIWSLNYFALLFLNFFEQPLWCEKNPKPSCKDRDYYYLGELPYLTNAESIIYEVITLAILLVHTFFPISYEGSRIFWTSRLNLVKVACVVILFVDVLVDFLYLSPLAFDFLPFRIAPYVRVIIFILSIRELRDTLVLLSGMLGTYLNILALWMLFLLFASWIAFVMFEDTQQGLTVFTSYGATLYQMFILFTTSNNPDVWIPAYKSSRWSSVFFVLYVLIGVYFVTNLILAVVYDSFKEQLAKQVSGMDQMKRRMLEKAFGLIDSDKNGEIDKNQCIKLFEQLTNYRTLPKISKEEFGLIFDELDDTRDFKINKDEFADLCQAIALRFQKEEVPSLFEHFPQIYHSALSQQLRAFVRSPNFGYAISFILIINFIAVVVETTLDIEESSAQKPWQVAEFVFGWIYVLEMALKIYTYGFENYWREGANRFDFLVTWVIVIGETATFITPDENTFFSNGEWIRYLLLARMLRLIRLLMNVQRYRAFIATFITLIPSLMPYLGTIFCVLCIYCSIGVQVFGGLVNAGNKKLFETELAEDDYLLFNFNDYPNGMVTLFNLLVMGNWQVWMESYKDLTGTWWSITYFVSFYVITILLLLNLVVAFVLEAFFTELDLEEEEKCQGQDSQEKRNRRRSAGSKSRSQRVDTLLHHMLGDELSKPECSTSDT
modifications: left off: Venus C-terminal half (VC, one copy) or Venus N-terminal half (VN, the other copy), C-terminal, kept
notes: wild type Arabidopsis two-pore channel TPC1 expressed as GFP-fusion in tpc1-2 background
In the case of B2, the “current remaining following reduction of Ca2+ from 1 mM to 200 µM” value in experiment [2] (at 107 mV, Ca2+ reduced from 1 mM to 200 µM (n = 3–7)) was determined as 53 ± 10%. Moreover, in experiment [3], the “BiFC signal” value is reported as “BiFC signals from wild type channels could be observed”.

B3: N-terminally tagged TPC1: TPC1 subunits N-terminally tagged with Venus halves (BiFC) or GFP (localization) (protein)
chain: MEDPLIGRDSLGGGGTDRVRRSEAITHGTPFQKAAALVDLAEDGIGLPVEILDQSSFGESARYYFIFTRLDLIWSLNYFALLFLNFFEQPLWCEKNPKPSCKDRDYYYLGELPYLTNAESIIYEVITLAILLVHTFFPISYEGSRIFWTSRLNLVKVACVVILFVDVLVDFLYLSPLAFDFLPFRIAPYVRVIIFILSIRELRDTLVLLSGMLGTYLNILALWMLFLLFASWIAFVMFEDTQQGLTVFTSYGATLYQMFILFTTSNNPDVWIPAYKSSRWSSVFFVLYVLIGVYFVTNLILAVVYDSFKEQLAKQVSGMDQMKRRMLEKAFGLIDSDKNGEIDKNQCIKLFEQLTNYRTLPKISKEEFGLIFDELDDTRDFKINKDEFADLCQAIALRFQKEEVPSLFEHFPQIYHSALSQQLRAFVRSPNFGYAISFILIINFIAVVVETTLDIEESSAQKPWQVAEFVFGWIYVLEMALKIYTYGFENYWREGANRFDFLVTWVIVIGETATFITPDENTFFSNGEWIRYLLLARMLRLIRLLMNVQRYRAFIATFITLIPSLMPYLGTIFCVLCIYCSIGVQVFGGLVNAGNKKLFETELAEDDYLLFNFNDYPNGMVTLFNLLVMGNWQVWMESYKDLTGTWWSITYFVSFYVITILLLLNLVVAFVLEAFFTELDLEEEEKCQGQDSQEKRNRRRSAGSKSRSQRVDTLLHHMLGDELSKPECSTSDT
modifications: left off: Venus C-terminal half (VC, one copy) or Venus N-terminal half (VN, the other copy), N-terminal, kept
Regarding B3, the “subcellular localization of GFP-fusion” value in the experiment on tonoplast is on record as “tonoplast localization”. In addition, the “BiFC signal” value in experiment [3] was “did not result in Venus-fluorescence”.
